Measurements reported in patent US20250034594A1, “RNA-GUIDED GENOME RECOMBINEERING AT KILOBASE SCALE” (THE BOARD OF TRUSTEES OF THE LELAND STANFORD JUNIOR …, priority 2021, published 2025).

B1: SSAP_243: SEQ ID NO: 412; Nocardia puris (protein, listed as Nocardia puris)
chain: AESISSEVARQASPLAVVARYRSELAGSLPAAVRHDVDRWLMVAEMAVRRSPDLMEIVRRDQGASLMRALIECARLGHEPGSPEFYLIPRGGIVSGEESYRGIIKRILNSGEYQRVVARVVHERDRFSFDPRIDEIPDHRPAEGERGAPARAYAFAVRWDGTPSTVGEATPERIIAAKAKARGVDRKDSPWNSPTGVMYRKTAIRELASYVHTSAEPRPRPAAPTEPPAVDEVSTVYDAEVIDEVDVLDITAEPTA
B2: SSAP_300: SEQ ID NO: 469; Lactobacillus sp. (protein, listed as Lactobacillus sp.)
chain: NSLSGALNSRNQAGSPTSMIKNLMRSDSIKNRFDEVMGAKAPQFMASITNLVNSNQDLQHVDAMSVVASAMVAATLDLPIDPNLGYMYIVPYRGQAQPQMGYKGYIQLALRTGQYKHINALPVYDDEVKSWNPLTEELEYESSGTSHDNQTPAGYVGYFQLINGFEKTTYWTYDQINSHRQKFSKMSSKTDPTGVWKSNFDAMALKTVLRNLISKWGIMSIEMQQAFVKDERPQEFDHETGEIQDVQEVEAEEENVAPETQGSTDKKEE
B3: SSAP_167: SEQ ID NO: 336; Ruminococcus sp. (protein, listed as Ruminococcus sp.)
chain: GTSIQKNVENNALQKEKMPTMQAYIKKMEGEIKKALPSVMTPERFTRITLSALSTNPKLAATTPGSFLGAMMTAAQLGLEPNTPLGQAYLIPYSNKGKLECQFQIGYKGLIDLAYRSGSISVIQAHTVYENDDFEYELGLDPKLKHIPSKSADKGNPAWFYAVFKTKDGGYGFEVMSIEDIRSHAAKYSQSYNSAYSPWKTNFEEMAKKTVLKKALKYAPLKSDFVRQISTDETIKTKLSDDMFSVPAETIEVEGIEVDTETGEITEVDHA
B4: SSAP_166: SEQ ID NO: 335; Blautia sp. OF03-15BH (protein, listed as Blautia sp.)
chain: NVKEELAQKAEITQKEVKLKKSMSISDMIRALQPEIKKALPSVVTPERFIRMALSALNTTPKLAECSQISVLAALMNAAQLGLEPNTPMGQAYLIPFNNKGKMECQFQIGYKGLLELVYRNPAIQIIQAQTVYENDYFEYELGLNSRLIHRPELEDRGEIRLFYGLFKMVNGGYGFEVMSRQEMDQYAARYSKSFASGFSPWENNYEDMAKKTMIKRVLKYAPVKIETARALINDESIKLHLSEDMSEVENETVVDGQAEEKAA
B5: SSAP_304: SEQ ID NO: 473; Desulfobacteraceae bacterium (protein, listed as Desulfobacteraceae bacterium)
chain: ATPNTPTTTDAGDFLKKSEKSLKNYAVRKYDFTSFLKSAMIAINDNTTLSECLRTEAGKKSLFNAMRYAATTGLSLNPQEGKAALIGYKNKAGEMVLNYQIMKNGLIDLALSSGKVEFVTADLVRANDEFSIKKSASGDDYSFSPAIRDRGEVIGFVAALKLKGSATYVKWMSTEEVAEFRDKYSSMYKNRPDASPWTHSFNGMGIKTVMKALLRSVSISPDVDAAVKSDDYIEAEFTVHGTTADDAVTQLQTPSKPVKAEEGQGELL
B6: SSAP_306: SEQ ID NO: 475; Paenibacillus gorillae (protein, listed as Paenibacillus gorillae)
chain: LEAKHDALPSGFNAVRFVQNCKAYLPEVRNFERFNPDEIALQFLKGAILGLDFLAKECHVITEGSAARFQTDYKGEMKLAMKHSVRPLLNIYAKNVREGDVFRESVVEGRPVVSFDPLPFNNSKIIGSFAVAQFNDGGMDYESMSSTEIESIRTHYGKNPGSDTWEKSQGEMYKRTALRRLCKTIEIDFDAEQRLAFDAGSSFEFNREPRPQQQSPLNLESEVLTDEVEQG
B7: SSAP_112: SEQ ID NO: 281; Bacillus sp. UNC322MFChir4.1 (protein, listed as Bacillus sp.)
chain: ATNKDVKNQLANRKENKPATPEQKVEAYMTAMAPRFAEVLPKHMSMDRMSRIALTTIRTNPKLLECSVPSLMGAVMQAVQLGLEPGLLGHCYILPYKSEATFIIGYKGMIDLARRSGHIQSIYAHAVYENDEFDYELGLHPKLTHKPSFGERGEFIGAYAVAHFKDGGHQMEFMPKSEIEKRRSRSASGNSSYSPWKSDYEEMAKKTVVRYMFKYLPISIEVQSQAQHDEVVRKDITEEPEFIEMDSIEVAEASEGDGQKEFVIEE
B8: SSAP_188: SEQ ID NO: 357; Propionibacterium freudenreichii (protein, listed as Propionibacterium freudenreichii)
chain: TQQMPIKAQGEPTKELQQKAAVDRFNATLHQMQNEIARALPKHMTGDRFVRIVLTEVRKNPTLALCDPLTMFGSLLTAAALGLEPGLNGECWLVPRKNHGTLEAQLQVGYRGVVKLFWQNPAATYLDTGYVCERDEFRFAKGLNPILEHTPAEGDRGKVVRYYAVAGLNTGARVFDVFTPAQIKTLRGGKVGSNGDIPDPEHWMERKTALLQVLKLMPKSTQLAAVPAADGRAHTISDAQQIFGGVDPTTGEVLDAEPVEDGAA
B9: SSAP_264: SEQ ID NO: 433; Cereibacter johrii (protein, listed as Cereibacter johrii)
chain: TENTAQAPAAARQLTPIQAISQTLESDAFAPKISASLDGTGISPARFKRAALACLSRPEASYLVEKCDRGSIFTAVMNAAAAELELHPALGQAYIVPRGGQAVLQVGYKGFIALASRAGLAVEADVIYAGDRFSIRKGTNPDVSVEPELDPAKRGEWVAVYVITHYASGAKTLTFMTRAEVEAIRNRYSDAYKRGGAGAKTWNESPEEMAKKTCIRRASKLWPISVPGGGDDDGGEVIEADPAPVPAPRMRDVTPGGGLDRLAASL
B10: SSAP_52: SEQ ID NO: 221 (protein)
chain: TIMDLLNDPKMKSQIQRALPNGMSAERIARIALTALRMNPQLQECSPQSFAAALMTSAQLGLEPNTPLGHAWLIPRKNHGKMEVQFELGYKGMLDLVRRSGMITAIFAEEVREKDEFEFEYGTNPYLKHKPYLGGDRGKVLFYYAVATFKDGGYAFKVMSIPEIEEARKLSQSANSPYSPWNRFYDEMAKKTVLKRLCKYLPLSIEVQRNLAQDETIRTQIEADDILDLPNENEFEVVEVEEIPGEEEKEEAKEGPFPNKALRESPTPLT
B11: SSAP_294: SEQ ID NO: 463; Parageobacillus thermoglucosidasius (protein, listed as Parageobacillus thermoglucosidasius)
chain: AKQADLKNKLANKNSTNPTAYLKNLVYAPTVQQKFKEVLKEKAAHFLTSLISLVDSSPDLQKCNPMTIIASAMKAATLELPIDKNLGYAWIVPYKNVATFQIGYKGYIQLALRTGLYRSINVIEVYEGELRKWNRLTEELDIDEGARKSDHVIGYAGYFELTNGFIKRVYWSKEDIERHRKKFAKSDFGWENNYDAMAKKTVLRNMLSKWGILSIDMQRAYVNDIDDPEQTKEVIDVEWSEIIEEANVANSPEQQEIVFEQ
B12: SSAP_228: SEQ ID NO: 397; Weissella koreensis (protein, listed as Weissella koreensis)
chain: ANELVKQLKSEKVAAQFETTAGKNAAAFASEVAISVMGNKALENASLSSVVVEATKASALGLSLLPTVGEAYLVPYKGQAQFQLGYKGLVQLAMRSGQMKSFGTVKVYEGEHPRWDKYSQELHTDGDETGEVVGYYAQFTLINGFKKADYWTKSAVEEHRSRFSKSKSGPWSTDFDAMAQKTVLKSILQYAPKSSEMTRAMASEDMNGDISEGTAKPIDITPETETPKVEEANQNQQIDTNEMVDEIKEYAKETNEAPKEQTVSAADEFFK
B13: SSAP_125: SEQ ID NO: 294; Lysinibacillus fusiformis (protein, listed as Lysinibacillus fusiformis)
chain: ATTNELKAKSQNQVQQNVTPEQSLNTLLKRMGPQIQRALPKHMDADRIARIALTAVRATPKLLECDQMSFVAALMQSAQLGVEPNTGLGQAYLIPYGKQVQFQLGYKGLIDLAVRSGQYKAIYAHEVYKEDEFSFAYGLHKDLVHVPSTNPEGEPIGYYAVYHLKNGGYDFVYWTRERIDKHAHEFSQAVKKGWTSPWKTNYDAMAKKTVLKEVLKYAPKSIELQKVVEADETIKTEVSEDMSDVIDVTDYSVIEDESAQEELIIEQ

Legend:
Type in all cases: cell-based
gene editing with Cas9 = assay: Screen of 322 new SSAP proteins, gene editing activity with Cas9 (Table 5); set-up: Cas9 with SSAP activity: scale not given here
In short: (§1)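 Synthetic SSAP candidates, identified computationally, were tested in editing screens using both Cas9 and dCas9.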

gene editing with dCas9 = assay: Screen of 322 new SSAP proteins, gene editing activity with dCas9 (Table 5); set-up: dCas9 with SSAP activity: scale not given here
In short: as §1

[1] = test system: gene editing with Cas9 and dCas9; assay: Screen of 322 new SSAP proteins, activity across all experiments (Cas9 and dCas9, Table 5); set-up: scale not given here
In short: as §1

| Molecule | Cas9 with SSAP activity (gene editing with Cas9) | Cas9 with SSAP activity (normalized) (gene editing with Cas9) | dCas9 with SSAP activity (gene editing with dCas9) | dCas9 with SSAP activity (normalized) (gene editing with dCas9) | Activity across all experiments [1] |
| --- | --- | --- | --- | --- | --- |
| B1 | −1.310 | −0.511 | −5.989 | −1.036 | −3.650 |
| B2 | −4.466 | −0.701 | −5.916 | −1.175 | −5.191 |
| B3 | −1.337 | −0.698 | −6.070 | −0.834 | −3.703 |
| B4 | −1.338 | −0.432 | −5.849 | −0.934 | −3.593 |
| B5 | −2.690 | −0.447 | −5.835 | −0.886 | −4.262 |
| B6 | −2.932 | −2.350 | −5.884 | −0.905 | −4.408 |
| B7 | −1.038 | −0.628 | −6.027 | −0.986 | −3.533 |
| B8 | −6.279 | −0.994 | −5.957 | −0.867 | −6.118 |
| B9 | 0.565 | 0.375 | −5.815 | −0.919 | −2.625 |
| B10 | −0.544 | −0.573 | 0.163 | 0.148 | −0.190 |
| B11 | −7.102 | −2.102 | −5.929 | −1.096 | −6.515 |
| B12 | −4.425 | −0.688 | −5.964 | −1.008 | −5.195 |
| B13 | −1.981 | −0.329 | −6.106 | −1.313 | −4.043 |
